Patent publication US20230303690A1 (published 2023)

What was measured:
[1] = molecular target: T1, LAG3 Protein, Human, Recombinant (His Tag) (Sino Biological Catalog No. 16498-H08H) (human, UniProt P18627 23-450); experiment: SPR binning on LAG3-His; competitor 21
T1 construct: Bought protein; also called hLAG3-His; LAG3-His; not shown: His tag
T1 sequence (looked up): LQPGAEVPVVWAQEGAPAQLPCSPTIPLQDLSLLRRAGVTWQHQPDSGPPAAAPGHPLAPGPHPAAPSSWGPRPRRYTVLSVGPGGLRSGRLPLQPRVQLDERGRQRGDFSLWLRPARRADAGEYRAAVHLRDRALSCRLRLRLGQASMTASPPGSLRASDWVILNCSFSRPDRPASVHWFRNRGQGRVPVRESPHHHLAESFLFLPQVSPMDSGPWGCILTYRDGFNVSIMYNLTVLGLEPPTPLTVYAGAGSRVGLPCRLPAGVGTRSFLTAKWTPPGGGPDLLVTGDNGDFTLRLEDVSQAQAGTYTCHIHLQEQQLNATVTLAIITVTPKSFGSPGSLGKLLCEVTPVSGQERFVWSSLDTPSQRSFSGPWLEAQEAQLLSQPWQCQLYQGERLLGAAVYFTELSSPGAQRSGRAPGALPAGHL
Experimental: (§1) The chip surface was regenerated after each cycle with 25 mM NaOH followed by HBS-EP wash provided in the kit.

[2] = molecular target: T1, LAG3 Protein, Human, Recombinant (His …); experiment: SPR binning on LAG3-His; competitor 1
Experimental: as §1

[3] = molecular target: T2, human LAG3 expressed on cells (human, UniProt P18627 23-525); experiment: cell-based or functional assay
T2 sequence (looked up): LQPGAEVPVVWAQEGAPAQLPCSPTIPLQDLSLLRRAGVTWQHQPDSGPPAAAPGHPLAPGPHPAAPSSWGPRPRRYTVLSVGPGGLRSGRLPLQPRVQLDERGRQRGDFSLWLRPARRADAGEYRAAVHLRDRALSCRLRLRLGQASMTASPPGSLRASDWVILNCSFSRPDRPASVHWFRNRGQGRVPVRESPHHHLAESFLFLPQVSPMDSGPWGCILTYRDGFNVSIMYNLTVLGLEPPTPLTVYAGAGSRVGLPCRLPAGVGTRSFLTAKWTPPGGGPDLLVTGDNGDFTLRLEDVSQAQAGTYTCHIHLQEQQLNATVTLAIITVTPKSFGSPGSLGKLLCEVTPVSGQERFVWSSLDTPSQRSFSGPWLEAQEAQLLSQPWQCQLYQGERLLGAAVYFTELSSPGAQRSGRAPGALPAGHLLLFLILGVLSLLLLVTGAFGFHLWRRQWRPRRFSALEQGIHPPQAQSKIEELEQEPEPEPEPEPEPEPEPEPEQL

[4] = molecular target: T1, LAG3 Protein, Human, Recombinant (His …); experiment: SPR binning on LAG3-His; competitor 24
Experimental: as §1

[5] = molecular target: T2, human LAG3 expressed on cells; experiment: cell-based or functional assay; remark: listed apart in the source
[6] = molecular target: T1, LAG3 Protein, Human, Recombinant (His …); experiment: SPR binning on LAG3-His; competitor 18
Experimental: as §1

[7] = molecular target: T1, LAG3 Protein, Human, Recombinant (His …); experiment: SPR binning on LAG3-His; competitor BMS
Experimental: as §1

[8] = molecular target: T1, LAG3 Protein, Human, Recombinant (His …); experiment: SPR binning on LAG3-His; competitor 27
Experimental: as §1

[9] = molecular target: T1, LAG3 Protein, Human, Recombinant (His …); experiment: SPR binning on LAG3-His; competitor 25
Experimental: as §1

[10] = molecular target: T1, LAG3 Protein, Human, Recombinant (His …); experiment: SPR binning on LAG3-His; competitor 17
Experimental: as §1

[11] = molecular target: T1, LAG3 Protein, Human, Recombinant (His …); experiment: SPR binning on LAG3-His; competitor 20
Experimental: as §1

[12] = molecular target: T1, LAG3 Protein, Human, Recombinant (His …); experiment: SPR binning on LAG3-His; competitor 73
Experimental: as §1

[13] = molecular target: T1, LAG3 Protein, Human, Recombinant (His …); experiment: SPR (Biacore), sdAb captured by anti-human Fc, LAG3-His analyte
Experimental: The binding of the single domain antibodies to recombinant human LAG3 protein (rhLAG3) was examined by Biacore™ assay. […] The coating was carried out according to the manufacturer’s instructions accompanying the kit (Catalog No. BR-1008-39, GE). […] The chip surface was regenerated after each cycle with 25 mM NaOH followed by HBS-EP wash provided in the kit.

[14] = molecular target: T1, LAG3 Protein, Human, Recombinant (His …); experiment: SPR binning on LAG3-His; competitor 37
Experimental: as §1

Binder | RU [1] | RU [2] | IL-2, % of BMS, at 0.005080526 ug/mL [3] | IL-2, % of BMS, at 0.015241579 ug/mL [3] | IL-2, % of BMS, at 0.045724737 ug/mL [3] | IL-2, % of BMS, at 0.137174211 ug/mL [3] | IL-2, % of BMS, at 0.411522634 ug/mL [3] | IL-2, % of BMS, at 1.234567901 ug/mL [3] | IL-2, % of BMS, at 3.703703704 ug/mL [3] | IL-2, % of BMS, at 11.11111111 ug/mL [3] | IL-2, % of BMS, at 33.33333333 ug/mL [3] | IL-2, % of BMS, at 100 ug/mL [3] | RU [4] | EC50 for IL-2 rescue, hLAG3 Jurkat T system [5] | Efficacy (IL-2 production, BMS = 100%) [5] | RU [6] | RU [7] | RU [8] | RU [9] | RU [10] | also measured
sdAb No. 27 (VHH, Fc of the tested form not described; also called sdAb 27; not shown: Fc part implied by anti-human Fc capture and anti-human IgG Fc detection) VHH: QVQLVESGGGLVQPGGSLRLSCAASGFTLDYYAIGWFRQAPGKEREGVSCIRSSDGSTYYADSVKGRFTISSDNTKNTVYLQMNSLKPEDTAVYYCATDRYSDCRGPYENWGQGTQVTVSS | -10.1 RU | -9.1 RU | 5.57% | 13.4% | 12.1% | 18% | 27.3% | 36.5% | 43.4% | 50% | 52.9% | 52.8% | -10.1 RU | 8.49 nM | 50.2% | -9.6 RU | 48.2 RU | -6.2 RU | 34 RU | -11.7 RU | RU [11]: -11.7 RU; RU [12]: -15.1 RU; koff [13]: 4.09e-07 s⁻¹; kon [13]: 1.17e+07 M⁻¹ s⁻¹; RU [14]: -9.1 RU
sdAb No. 17 (VHH, Fc of the tested form not described; also called sdAb 17; not shown: Fc part implied by anti-human Fc capture and anti-human IgG1 Fc detection) VHH: QLQLVESGGGLVQPGGSLRLSCAASGLTLDGYAIGWFRQAPGKEREGLACISGSDGSTHYLDSVKGRFTISRDNGKNTMALQMNSLQFGDTAIYYCAARRGSCSGSWTYWGQGTQVTVSS | -12.5 RU | -13.6 RU | 5.97% | 9.56% | 9.97% | 18% | 22.3% | 26.5% | 31.4% | 38% | 38% | 42.2% | -10.4 RU | 7.72 nM | 46.5% | -7.5 RU | 15.2 RU | -7 RU | 17.9 RU | -2 RU | RU [11]: -14.6 RU; RU [12]: -17 RU; Kd [13]: 0.181 nM; koff [13]: 0.0012 s⁻¹; kon [13]: 6.6e+06 M⁻¹ s⁻¹; RU [14]: -13.4 RU
sdAb No. 25 (VHH, Fc of the tested form not described; also called sdAb 25; sdAb #25; not shown: Fc part implied by anti-human Fc capture and anti-human IgG Fc detection) VHH: QLQLVESGGGLVQAGGSLRLSCAASGSIESFSFMGWYRQAPGKQRELVAGFTGAASLSFSTYTDAVKGRFTISRDNAKNTVYLQMNSLKPEDTAVYFCNVDPWSQSWPGRYWGQGTQVTVSS | 49.3 RU | 44.7 RU | 3.24% | -0.59% | 8.03% | 2.39% | 9.2% | 25.1% | 30.6% | 34.1% | 39.8% | 53.7% | 46.4 RU | 8.12 nM | 43.4% | 39 RU | 31.7 RU | 50.9 RU | 7.2 RU | 41 RU | RU [11]: 44.6 RU; RU [12]: 47.6 RU; Kd [13]: 0.017 nM; koff [13]: 0.000108 s⁻¹; kon [13]: 6.31e+06 M⁻¹ s⁻¹; RU [14]: 44.1 RU
